The text below walks through data of US20240399042A1.

Experiment [1] addresses Ebola-Zaire-sGP: Soluble glycoprotein (sGP) released from infected cells (Ebola, species Zaire ebolavirus) (UniProt P60170).
Experiment [2] has as its target Marburg-GP (Marburg).

Sequence of Ebola-Zaire-sGP: Soluble glycoprotein (sGP) released from infected cells (Ebola, species Zaire ebolavirus) (P60170 33-324 limits assumed): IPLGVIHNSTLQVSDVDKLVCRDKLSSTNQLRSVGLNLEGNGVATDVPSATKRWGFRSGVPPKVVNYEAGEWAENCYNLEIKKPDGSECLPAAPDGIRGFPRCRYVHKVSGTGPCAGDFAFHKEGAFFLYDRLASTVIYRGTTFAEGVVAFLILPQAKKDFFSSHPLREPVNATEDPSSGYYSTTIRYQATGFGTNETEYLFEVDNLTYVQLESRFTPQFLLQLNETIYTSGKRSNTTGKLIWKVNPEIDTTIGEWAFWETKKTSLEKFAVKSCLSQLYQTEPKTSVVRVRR
Sequence of Galanthus nivalis agglutinin (GNA) (P30617 24-128 limits assumed): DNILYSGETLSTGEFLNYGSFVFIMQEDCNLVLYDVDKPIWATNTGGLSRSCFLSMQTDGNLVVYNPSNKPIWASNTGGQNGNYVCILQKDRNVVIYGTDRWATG

Regarding “Galanthus nivalis agglutinin (GNA) (from UniProt P30617 24-128)”, in experiment [1], the % Removal at 6 hours worked out at 97%. This substance yielded a % Removal (run of 3 hours) in experiment [2] of 60%.
